The values below come from patent publication US20250076311A1 (Chugai, published 2025).

Assay in all cases: SPR; KD of SG1 / KD of variant
Test [1] deals with T1, cynomolgus monkey FcγRIIb extracellular domain with C-terminal His-tag (cynomolgus monkey).
T1 construct: also called cyno FcγRIIb; cynoFcγRIIb
T1 chain: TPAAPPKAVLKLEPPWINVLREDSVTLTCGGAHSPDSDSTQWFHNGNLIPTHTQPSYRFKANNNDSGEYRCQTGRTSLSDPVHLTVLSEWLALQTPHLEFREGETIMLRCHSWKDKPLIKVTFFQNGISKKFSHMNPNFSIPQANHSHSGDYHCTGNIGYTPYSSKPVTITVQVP

In test [2] the target is T2, cynomolgus monkey FcγRIIIaS extracellular domain with C-terminal His-tag (cynomolgus monkey, UniProt Q8SPW2 21-206 at identity 1.00)).
T2 construct: also called cyno FcγRIIIaS; FcgRIIIaS
T2 chain: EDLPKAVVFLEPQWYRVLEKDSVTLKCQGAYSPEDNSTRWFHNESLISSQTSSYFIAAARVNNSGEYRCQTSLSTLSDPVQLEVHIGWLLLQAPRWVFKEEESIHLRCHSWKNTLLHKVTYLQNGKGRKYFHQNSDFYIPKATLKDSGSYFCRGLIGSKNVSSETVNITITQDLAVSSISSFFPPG

For test [3], the target named is T3, human FcγRIIaR extracellular domain with C-terminal His-tag (human, UniProt P12318 34-217).
T3 construct: also called human FcγRIIa (type R); FcgRIIaR
T3 chain: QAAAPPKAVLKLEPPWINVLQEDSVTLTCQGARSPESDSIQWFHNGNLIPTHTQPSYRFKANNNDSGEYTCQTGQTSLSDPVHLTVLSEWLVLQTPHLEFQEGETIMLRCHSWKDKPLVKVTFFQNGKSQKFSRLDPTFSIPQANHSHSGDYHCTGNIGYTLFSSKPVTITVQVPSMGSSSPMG

The target of test [4] is T4, human FcγRIIb extracellular domain with C-terminal His-tag (human, UniProt P31994 43-217).
T4 construct: also called human FcgRIIb; FcgRIIb
T4 sequence: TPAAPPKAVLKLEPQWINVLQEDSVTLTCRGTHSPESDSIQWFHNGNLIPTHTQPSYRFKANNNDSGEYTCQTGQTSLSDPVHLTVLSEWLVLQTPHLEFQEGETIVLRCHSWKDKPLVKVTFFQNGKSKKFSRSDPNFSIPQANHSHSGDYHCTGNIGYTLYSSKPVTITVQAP

In test [5] the target is T5, human FcγRIIIaV extracellular domain with C-terminal His-tag (human, UniProt P08637 17-208).
T5 construct: also called human FcgRIIIaV; FcgRIIIaV
T5 sequence (P08637 17-208 F176V): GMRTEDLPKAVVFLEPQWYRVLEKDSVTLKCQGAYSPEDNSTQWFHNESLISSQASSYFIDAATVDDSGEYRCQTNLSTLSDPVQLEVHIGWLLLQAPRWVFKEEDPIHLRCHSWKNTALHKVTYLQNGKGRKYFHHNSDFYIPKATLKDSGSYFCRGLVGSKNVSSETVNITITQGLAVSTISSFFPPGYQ

In test [6] the target is T6, human FcγRIIaH extracellular domain with C-terminal His-tag (human, UniProt P12318 34-217).
T6 construct: also called human FcγRIIa (type H); FcgRIIaH
T6 sequence: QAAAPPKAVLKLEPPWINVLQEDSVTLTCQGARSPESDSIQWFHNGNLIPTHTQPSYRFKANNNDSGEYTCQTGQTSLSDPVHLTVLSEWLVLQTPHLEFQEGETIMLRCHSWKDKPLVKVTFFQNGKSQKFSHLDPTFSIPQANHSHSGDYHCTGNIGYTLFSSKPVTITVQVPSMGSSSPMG

B1: M103205H795-MY143 (heavy chain) with M103202L889-SK1 (light chain) (antibody, human IgG1, kappa, name in EU numbering)
heavy: QVTLKESGPVLVKPTETLTLTCTVSGIDLSHDDISWVRQAPGKGLEWVGIISYAGSTYYASWAKGRLTISKDTSKNQVVLTMTNMDPVDTATYYCARGVPAYSHGGDLWGQGTLVTVSSASTKGPSVFPLAPSSKSTSGGTAALGCLVKDYFPEPVTVSWNSGALTSGVHTFPAVLQSSGLYSLSSVVTVPSSSLGTQTYICNVNHKPSNTKVDKKVEPKSCDKTHTCPPCPAPELLSGPSVFLFPPKPKDTLMISRTPEVTCVVVDVSEEDPEVKFNWYVDGVEVHNAKTKPREEQYNSTYRVVSVLTVLHQDWLNGKEYKCKVSNKALPAPIEKTISKAKGQPREPQVYTLPPSREEMTKNQVSLTCLVKGFYPSDIAVEWESNGQPENNYKTTPMVLDSDGSFFLYSKLTVDKSRWQQGNVFSCSVMHEALHNHYTQKSLSLSP
light: DIVMTQSPATLSLSPGERATLSCTSSQSVYHANWLSWFQQKPGQPPKLLIYWASTLAYGVPSRFSGSGSGTDFTLTISSLQPEDAATYYCAGGYGGGRYAFGQGTKVEIKRTVAAPSVFIFPPSDEQLKSGTASVVCLLNNFYPREAKVQWKVDNALQSGNSQESVTEQDSKDSTYSLSSTLTLSKADYEKHKVYACEVTHQGLSSPVTKSFNRGEC
notes: Substitutions introduced into M103205H795-SG1; positions in EU numbering
For the molecule B1, the “KD fold (SG1 = 1)” value in test [1] was found to be 3.9 fold; in test [2] it was 1.29 fold; in test [3], 13.1 fold; in test [4], 6.8 fold; in test [5] it was 0.51 fold.

B2: M103205H795-MY281 (heavy chain) with M103202L889-SK1 (light chain) (antibody, human IgG1, kappa, name in EU numbering)
heavy: QVTLKESGPVLVKPTETLTLTCTVSGIDLSHDDISWVRQAPGKGLEWVGIISYAGSTYYASWAKGRLTISKDTSKNQVVLTMTNMDPVDTATYYCARGVPAYSHGGDLWGQGTLVTVSSASTKGPSVFPLAPSSKSTSGGTAALGCLVKDYFPEPVTVSWNSGALTSGVHTFPAVLQSSGLYSLSSVVTVPSSSLGTQTYICNVNHKPSNTKVDKKVEPKSCDKTHTCPPCPAPELLQGPSVFLFPPKPKDTLMISRTPEVTCVVVDVSDEDPEVKFNWYVDGVEVHNAKTKPREELYNSTYRVVSVLTVLHQDWLNGKEYKCKVSNKALPKPIEKTISKAKGQPREPQVYTLPPSREEMTKNQVSLTCLVKGFYPSDIAVEWESNGQPENNYKTTPPVLDSDGSFFLYSKLTVDKSRWQQGNVFSCSVMHEALHNHYTQKSLSLSP
light: DIVMTQSPATLSLSPGERATLSCTSSQSVYHANWLSWFQQKPGQPPKLLIYWASTLAYGVPSRFSGSGSGTDFTLTISSLQPEDAATYYCAGGYGGGRYAFGQGTKVEIKRTVAAPSVFIFPPSDEQLKSGTASVVCLLNNFYPREAKVQWKVDNALQSGNSQESVTEQDSKDSTYSLSSTLTLSKADYEKHKVYACEVTHQGLSSPVTKSFNRGEC
notes: as for B1
For B2, the “KD fold (SG1 = 1)” value is 0.49 fold in test [2] and 5.3 fold in test [6].

B3: M103205H795-MY274 (heavy chain) with M103202L889-SK1 (light chain) (antibody, human IgG1, kappa, name in EU numbering)
heavy: QVTLKESGPVLVKPTETLTLTCTVSGIDLSHDDISWVRQAPGKGLEWVGIISYAGSTYYASWAKGRLTISKDTSKNQVVLTMTNMDPVDTATYYCARGVPAYSHGGDLWGQGTLVTVSSASTKGPSVFPLAPSSKSTSGGTAALGCLVKDYFPEPVTVSWNSGALTSGVHTFPAVLQSSGLYSLSSVVTVPSSSLGTQTYICNVNHKPSNTKVDKKVEPKSCDKTHTCPPCPAPELLTGPSVFLFPPKPKDTLMISRTPEVTCVVVDVSDEDPEVKFNWYVDGVEVHNAKTKPREEQYNSTYRVVSVLTVLHQDWLNGKEYKCKVSNKALPKPIEKTISKAKGQPREPQVYTLPPSREEMTKNQVSLTCLVKGFYPSDIAVEWESNGQPENNYKTTPKVLDSDGSFFLYSKLTVDKSRWQQGNVFSCSVMHEALHNHYTQKSLSLSP
light: DIVMTQSPATLSLSPGERATLSCTSSQSVYHANWLSWFQQKPGQPPKLLIYWASTLAYGVPSRFSGSGSGTDFTLTISSLQPEDAATYYCAGGYGGGRYAFGQGTKVEIKRTVAAPSVFIFPPSDEQLKSGTASVVCLLNNFYPREAKVQWKVDNALQSGNSQESVTEQDSKDSTYSLSSTLTLSKADYEKHKVYACEVTHQGLSSPVTKSFNRGEC
notes: as for B1
As for B3, the “KD fold (SG1 = 1)” value in test [2] amounted to 0.58 fold; in test [6] it was 8.5 fold; in test [5], 0.32 fold.

B4: M103205H795-MY269 (heavy chain) with M103202L889-SK1 (light chain) (antibody, human IgG1, kappa, name in EU numbering)
heavy: QVTLKESGPVLVKPTETLTLTCTVSGIDLSHDDISWVRQAPGKGLEWVGIISYAGSTYYASWAKGRLTISKDTSKNQVVLTMTNMDPVDTATYYCARGVPAYSHGGDLWGQGTLVTVSSASTKGPSVFPLAPSSKSTSGGTAALGCLVKDYFPEPVTVSWNSGALTSGVHTFPAVLQSSGLYSLSSVVTVPSSSLGTQTYICNVNHKPSNTKVDKKVEPKSCDKTHTCPPCPAPELLMGPSVFLFPPKPKDTLMISRTPEVTCVVVDVSDEDPEVKFNWYVDGVEVHNAKTKPREEQYNSTYRVVSVLTVLHQDWLNGKEYKCKVSNKALPKPIEKTISKAKGQPREPQVYTLPPSREEMTKNQVSLTCLVKGFYPSDIAVEWESNGQPENNYKTTPKVLDSDGSFFLYSKLTVDKSRWQQGNVFSCSVMHEALHNHYTQKSLSLSP
light: DIVMTQSPATLSLSPGERATLSCTSSQSVYHANWLSWFQQKPGQPPKLLIYWASTLAYGVPSRFSGSGSGTDFTLTISSLQPEDAATYYCAGGYGGGRYAFGQGTKVEIKRTVAAPSVFIFPPSDEQLKSGTASVVCLLNNFYPREAKVQWKVDNALQSGNSQESVTEQDSKDSTYSLSSTLTLSKADYEKHKVYACEVTHQGLSSPVTKSFNRGEC
notes: as for B1
For B4, the results for the “KD fold (SG1 = 1)” value in test [2] and in test [6] were 1.64 fold and 2.8 fold, respectively.

B5: M103205H795-MY270 (heavy chain) with M103202L889-SK1 (light chain) (antibody, human IgG1, kappa, name in EU numbering)
heavy: QVTLKESGPVLVKPTETLTLTCTVSGIDLSHDDISWVRQAPGKGLEWVGIISYAGSTYYASWAKGRLTISKDTSKNQVVLTMTNMDPVDTATYYCARGVPAYSHGGDLWGQGTLVTVSSASTKGPSVFPLAPSSKSTSGGTAALGCLVKDYFPEPVTVSWNSGALTSGVHTFPAVLQSSGLYSLSSVVTVPSSSLGTQTYICNVNHKPSNTKVDKKVEPKSCDKTHTCPPCPAPELLHGPSVFLFPPKPKDTLMISRTPEVTCVVVDVSDEDPEVKFNWYVDGVEVHNAKTKPREEQYNSTYRVVSVLTVLHQDWLNGKEYKCKVSNKALPKPIEKTISKAKGQPREPQVYTLPPSREEMTKNQVSLTCLVKGFYPSDIAVEWESNGQPENNYKTTPKVLDSDGSFFLYSKLTVDKSRWQQGNVFSCSVMHEALHNHYTQKSLSLSP
light: DIVMTQSPATLSLSPGERATLSCTSSQSVYHANWLSWFQQKPGQPPKLLIYWASTLAYGVPSRFSGSGSGTDFTLTISSLQPEDAATYYCAGGYGGGRYAFGQGTKVEIKRTVAAPSVFIFPPSDEQLKSGTASVVCLLNNFYPREAKVQWKVDNALQSGNSQESVTEQDSKDSTYSLSSTLTLSKADYEKHKVYACEVTHQGLSSPVTKSFNRGEC
notes: as for B1
Regarding B5, the “KD fold (SG1 = 1)” value in test [1] came out at 3.6 fold; in test [2], 0.33 fold; in test [3] it was 3 fold; in test [4], 1.8 fold.
